Reference: publication PMC6606709, “Granzyme A Stimulates pDCs to Promote Adaptive Immunity via Induction of Type I IFN” (Frontiers in Immunology, 2019)

Target: the molecule itself
Assay: SDS-PAGE under reduced and non-reduced conditions; reduced and non-reduced GzmA run on 10-12 % SDS-PAGE, Coomassie Brilliant Blue stain

B1: recombinant granzyme A (GzmA), mouse, residues 29-260, histidine-tagged (enzyme, UniProt P11032 29-260, looked up)
chain: IIGGDTVVPHSRPYMALLKLSSNTICAGALIEKNWVLTAAHCNVGKRSKFILGAHSINKEPEQQILTVKKAFPYPCYDEYTREGDLQLVRLKKKATVNRNVAILHLPKKGDDVKPGTRCRVAGWGRFGNKSAPSETLREVNITVIDRKICNDEKHYNFHPVIGLNMICAGDLRGGKDSCNGDSGSPLLCDGILRGITSFGGEKCGDRRWPGVYTFLSDKHLNWIKKIMKGSV
notes: mouse granzyme A, residues 29-260; also called recombinant GzmA
For B1, the “stoichiometry N” value was 2.
